What was measured:
[1] = target: Leukine (commercial rhGM-CSF of Schering AG, expressed in yeast) (human) (UniProt P04141); test: cell-based or functional assay
[2] = target: rhGM-CSF expressed in NM-F9 cells cultured with 90 mM ManNAc (optimal sialylation form of rhGM-CSF) (human) (UniProt P04141); test: cell-based or functional assay

**Q.** Which stimulation of TF-1 cell proliferation (BrdU-proliferation assay), blocking at 5 µg/ml antibody [1] does the source give for anti-human GM-CSF antibody BVD2-23 B6 here?
**A.** 60%

**Q.** And the stimulation of TF-1 cell proliferation (BrdU-proliferation assay), blocking at 5 µg/ml antibody [2]?
**A.** 60%

Reference: US8609370
